31 molecules from patent publication US20170247475A1 (Boehringer Ingelheim, published 2017) can be followed below.

The target of this test is T1, recombinant human VEGF165 (human, UniProt P15692-4 27-191).
T1 construct: also called hVEGF165; rhVEGF165
The test is described as follows: ELISA screen, periplasmic extract on coated hVEGF165. An excerpt: Wells are blocked with a casein solution (1%). After addition of typically a 10-fold dilution of the periplasmic extracts, VHH binding is detected using a mouse anti-myc (Roche) and an anti-mouse-HRP conjugate (DAKO). Clones showing ELISA signals of >3-fold above background are considered as VEGF binding VHHs.
On the technique in general: An ELISA detects its analyte on a solid surface through an enzyme-linked reagent.

T1 sequence (P15692 other isoform, or with tags, fused parts or gaps limits assumed): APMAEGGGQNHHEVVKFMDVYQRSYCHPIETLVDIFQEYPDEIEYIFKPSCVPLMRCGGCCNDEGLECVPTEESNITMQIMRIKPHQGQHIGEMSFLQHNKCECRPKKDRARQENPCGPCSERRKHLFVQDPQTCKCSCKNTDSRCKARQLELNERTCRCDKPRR

B1: VEGFBII08E06 (VHH)
VHH: EVQLVESGGGLVQPGGSLRLSCAASGSIVRSDVMGWYRQAPGKQRELVAFIRSLGSTYYAGSVKGRFTISRDDAANTVYLQMNNLKPEDTAVYYCNARFSGESYWGQGTPVTVSS
Consider B1, for which the binding result was “binds”.

B2: VEGFBII12C04 (VHH)
VHH: EVQLVESGGGLVQPGGSLRLSCAASGSIVRSDVMGWYRQAPGKQRELVAFIRSLGSTYYAGSVKGRFTISRDNAANTVYLQMNNLKPEDTAVYYCNARFSGESYWGQGTPVTVSS
For B2, the binding result is recorded as “binds”.

B3: VEGFBII08E07 (VHH)
VHH: EVQLVESGGGLAQAGGSLRLSCTTSGLTFSSYYMGWFRQAPGKEREFVATISWNKISTIYTDSVKGRFTVSRDNNKNTVYLQMNSLKPEDTAVYYCAADASRPTLRIPQYWGQGTQVTVSS
On to B3, for which the binding result is “binds”.

B4: VEGFBII16F11 (VHH)
VHH: EVQLVESGGGLVQAGGSLRLSCAASGRTSSGYDMGWFRQAPGKEREFVTAITWSGGSTYSPDSVKGRFTISRDNAKNTVYLQMNNLTPEDTAVYYCASGRIWRSRDYDSEKYYDIWGHGTQVTVSS
Take B4: the binding result is on record as “binds”.

B5: VEGFBII08F07 (VHH)
VHH: EVQLVESGGGLVQAGGSLRLSCAVSGSTFGLYAMGWFRQAPGREREFLSAITWSAGDTQYADSVKGRFTISRDNARNTVNLQMNGLKPEDTAVYYCAGRQWGGTYYYHGSYAYWGQGTQVTVSS
B5: the binding result is given as “binds”.

B6: VEGFBII12G04 (VHH)
VHH: EVQLVESGGGLVQSGDSLRLSCAVSGNTFGLYAMGWFRQAPGREREFVSAITWSAGDTQYADSVKGRFTISRDNARNTVNLQMNGLKPEDTAVYYCAGRQWGGTYYYHGSYAWWGQGTQVTVSS
Take B6: the binding result was “binds”.

B7: VEGFBII09F05 (VHH)
VHH: EVQLVESGGGLVQAGGSLRLSCAASGRTFSTDDVGWFRQAPGKEREFVAVIRWSTGGTYTSDSVKGRFTLSRDNAKNTMYLQMNSLKPEDTAVYYCAARSRPLGAGAWYTGETRYNYWGQGTQVTVSS
B7: the binding result is recorded as “binds”.

B8: VEGFBII09A12 (VHH)
VHH: EVQLVESGGGLVQAGGSLRLSCAASGRTFSTDDVGWFRQAPGKEREFVAVIRWSTGGTYTSDSVAGRFTLSRDNAKNTMYLQMNSLKPEDTAVYYCAARSRPLGAGAWYTGETRYDSWGQGTQVTVSS
As for B8, the binding result is listed as “binds”.

B9: VEGFBII16C03 (VHH)
VHH: EVQLVESEGGLVQAGGSLRLSCAASGRTFSTDDVGWFRQAPGKEREFVAVIRWSTGGTYTSDSVKGRFTLSRDNAKNTMYLQMNSLKPEDTAVYYCAARSRPLGAGAWYTGENYYNYWGQGTQVTVSS
Consider B9, for which the binding result is recorded as “binds”.

B10: VEGFBII04B08 (VHH)
VHH: EVQLVESGGGLVQPGGSLRLSCAASGSAVGDITVAWYRQAPGIQRQLVATITPSGYTYYWDFVKGRFTISRDNSKNIVYLQMNSLKPEDTAAYYCNTQFYWGQGTQVTVSS
For B10, the binding result is “binds”.

B11: VEGFBII86G10 (VHH)
VHH: EVQLVESGGGLVQAGGSLRLSCAASGRTFNTYTMGWFRQTPGTEREFVAAIRWTVNITYYADSVKGRFTISRDIVKNTVYLQMNSLKPEDTAVYYCAAQTSAPRSLIRMSNEYPYWGQGTQVTVSS
Turning to B11, the binding result is reported as “binds”.

B12: VEGFBII86G08 (VHH)
VHH: EVQLVESGGGLMQTGDSLRLSCAASGLRFTSTNMGWFRQGPGKEREFVAAITLSGTTYYAEAVKGRFTISRDNDKNTVALQMNSLKPEDTAVYYCGADPSYYSTSRYTKATEYDYWGQGTQVTVSS
For the molecule B12, the binding result is given as “binds”.

B13: VEGFBII11C11 (VHH)
VHH: EVQLVESGGGLVQAGGSLMLSCAASGRALSSYAIGWFRQAPGREREFVARISWSGANTYYADSVKGRFTISRGNAKNTVYLQMNSLKPEDTAAYYCAAQTTSKYDNYDARAYGYWGQGTQVTVSS
Turning to B13, the binding result is listed as “binds”.

B14: VEGFBII86F11 (VHH)
VHH: EVQLVESGGGLVQAGDSLRLSCFTSARTFDTWAMAWFRQAPGKEREFISAISWSGSMTYYTDSVKGRFIISRDNAQNTLFLQMNNTAPEDTAVYYCAAKTVDYCSAYECYARLEYDYWGRGAQVTVSS
In the case of B14, the binding result was “binds”.

B15: VEGFBII09A09 (VHH)
VHH: EVQLVESGGGLVQPGGSLRLSCVASGIRFMSMAWYRQAPGKHRELVARISSEGTTAYVDSVKGRFTISRDNSKNTVYLQMNSLKAEDTAVYYCNTFSSRPNPWGAGTTVTVSS
As to B15, the binding result was “binds”.

B16: VEGFBII12B01 (VHH)
VHH: EVQLVESGGGLVQPGGSLRLACAASGFTLSSSWMYWVRQAPGKGLEWVSRISPGGLFTYYVDSVKGRFSVSTDNANNTLYLQMNSLKPEDTALYSCAKGGAPNYTPRGRGTQVTVSS
With B16, the binding result was “binds”.

B17: VEGFBII86C11 (VHH)
VHH: EVQLVESGGGLVQAGDSLRLSCTASGRTFNSYAMGWFRQAPGKERESVAHINRSGSSTYYADSVKGRFTISRDNAKNTVYLQLNSLKPEDTAVYYCAAGRYYSSDGVPSASFNYWGQGTQVTVSS
Take B17: the binding result is recorded as “binds”.

B18: VEGFBII12A07 (VHH)
VHH: EVQLVESGGGLVQAGGSLRLSCSVTGRTFNKYVMGWFRQAPGNDREFVAAITSRDGPTYYADSVKGRFTISGDNTKNKIFLQMNSLMPEDTAVYYCAIDEDLYHYSSYHFTRVDLYHYWGQGTQVTVSS
With B18, the binding result was “binds”.

B19: VEGFBII39H11 (VHH)
VHH: EVQLVESGGGLVQAGGSLRLSCAASGRTFSAYDMGWFRQAPGKEREFVAVISWTGGMTYYADSVKGRFTISRDKAKNTVSLQMNSLKPEDTAVYYCAVDRRRTYSRWRYYTGVNEYEYWGQGTQVTVSS
As to B19, the binding result is reported as “binds”.

B20: VEGFBII41B06 (VHH)
VHH: EVQLVESGGGLVQAGGSLRLSCAASGRTFSAYDMGWFRQAPGKEREFVAVISWTGDMTYYADSVKGRFTISRDKAKNTVSLQMNSLKPEDTAVYYCAADRRRTYSRWRYYTGVNEYEYWGQGTQVTVSS
For the molecule B20, the binding result was “binds”.

B21: VEGFBII42F10 (VHH)
VHH: EVQLVESGGGLVQAGGSLRLSCAASGRTFSAYDMGWFRQAPGKEREFVAVISWSGGMTDYADSVKGRFTISRENAKNTQFLQMNSLKPEDTAVYYCAVGRRRAYSRWRYYTGVNEYDYWGQGTQVTVSS
B21: the binding result is “binds”.

B22: VEGFBII38A06 (VHH)
VHH: EVQLVESGGGLVQAGGSLRLSCAASGRTFSAYDMGWFRQAPGKEREFVAVISWSGGMTYYADSVKGRFTISRDNAKNTVYLQMNSLKPEDTAVYYCAVDRRRLYSRWRYYTGVNDYDYWGQGTQVTVSS
Take B22: the binding result is “binds”.

B23: VEGFBII36C08 (VHH)
VHH: EVQLVESGGGLVQAGGSLRLSCAASGRTFSAYDMGWFRQAPGKEREFVAVISWTNSMTYYADSVKGRFTISRDNAKNTVYLQMNSLKPEDTAVYYCAVDRRRTYSRWRFYTGVNDYDYWGQGTQVTVSS
Consider B23, for which the binding result is on record as “binds”.

B24: VEGFBII37F09 (VHH)
VHH: EVQLVESGGGLVQTGGSLRLSCAASGRTFSAYDMGWFRQAPGKEREFVAVISWSGGMTYYADSVQGRFTISRDNAKSTVYLQMNSPKPEDTAVYYCAVDRRRAYSRWRYYTGVNDYEFWGQGTQVTVSS
For B24, the binding result is “binds”.

B25: VEGFBII41D11 (VHH)
VHH: EVQLMESGGGLVQAGGSLRLSCAASGRTFSAYDMGWFRQAPGKEREFVAVISWTGGMTYYADSVKGRFTISRDKAKNTVSLQMNSLKPEDTAVYYCAVDRRRTYSRWRYYTGVNEYEYWGQGTQVTVSS
Regarding B25, the binding result was “binds”.

B26: VEGFBII09D05 (VHH)
VHH: EVQLVESGGGLVQPGDSLRLSCAASGLSFSRYGMGWFRQAPGKEREFVIAISEYDNVYTADSVRGRFTISRDNSKSTVYLQMNSLKSEDTAVYYCAASPTILLSTDEWYKYWGRGTQVTVSS
Turning to B26, the binding result is reported as “binds”.

B27: VEGFBII11G09 (VHH)
VHH: EVQLVESGGGLVQAGGSLRLSCAASTSIYSITVMAWFRQAPGKEREFVAAITWSAPTTYSADSVKGRFTISRDNAKNTVYLQMNSLKPEDSAIYYCAADRFKGRSIVTRSDYRYWGQGTQVTVSS
Regarding B27, the binding result is given as “binds”.

B28: VEGFBII07A03 (VHH)
VHH: EVQLVESGGGLVQAGGSLRLSCAASTSIYSITVMAWFRQAPGKESEFVAAITWSAPSSYYADSVKGRFTISRDNAKNTVYLQMNSLKPEDSAIYYCAADRFKGRSIVTRSDYKYWGQGTQVTVSS
As for B28, the binding result was “binds”.

B29: VEGFBII07A06 (VHH)
VHH: EVQLVESGGGLVQAGGSLRLSCAVSTSIYSISVMAWFRQAPGKERAFVAAITWSAPTTYYADSVKGRFTISRDNAKNTVYLQTNSLKPEDSAIYYCAADRFKGRSIVTRSDYRYWGQGTQVTVSS
B29: the binding result is “binds”.

B30: VEGFBII11F10 (VHH)
VHH: EVQLVESGGGLVQAGGSLRLSCAASTSIYSITVMAWFRQAPGKEREFVAAITWSAPSSYYADSVKGRFTISRDNAKNTVYLQVNSLKPEDSAIYYCAADRFKGRSIVTRSDYRYWGQGTQVTVSS
On to B30, for which the binding result is “binds”.

B31: VEGFBII12E10 (VHH)
VHH: EVQLVESGGGLAQAGGSLRLSCTASGRTFNNYVMGWFRQAPGNEREFVAAITSTNGPTYYADSVKGRFTISGDNTKNKVFLQMDSLRPEDTAVYYCAIDEDLYHYSSYHYTRVALYHYWGQGTQVTVSS
For the molecule B31, the binding result is given as “binds”.
